Results from the RNAGym collection of RNA variant scans (doi:10.7554/elife.90254).

B1: LINE1-mini (parent)
chain: GGCAGAGCUCAACACAGCGUGGCAAAGUGGCUGUGGCUAGACUGCC

Variants of: B1
Test: self-cleavage, relative activity (ratio to wild type); higher = more cleavage; in vitro, sequencing; the parent is a self-cleaving ribozyme

Row | Variant | self-cleavage
1 | A16U A26U | 0.13
2 | A16U A26G | 0.06
3 | G17A C23A | 0.29
4 | G17A C23G | 0.13
5 | G17A C23U | 0.22
6 | G17A G36U | 0.05
7 | G17A G36C | 0.05
8 | G17A G36A | 0.1
9 | A16U C42U | 0.09
10 | A16U C42G | 0.07
11 | A16U C42A | 0.05
12 | A16U U38A | 0.1
13 | A16U U38G | 0.02
14 | A16U U38C | 0.04
15 | G17A U38A | 0.21
16 | G17A U38G | 0.04
17 | G17A U38C | 0.12
18 | G17A G30U | 0.2
19 | G17A G30A | 0.57
20 | G17A G30C | 0.83
21 | A16G G36U | 0.04

Row | Variant | self-cleavage
22 | A16G G36A | 0.53
23 | A16G G36C | 0.05
24 | G17A G22C | 0.17
25 | G17A G22A | 0.32
26 | G17A G22U | 0.54
27 | A16G G27U | 0.68
28 | A16G G27A | 0.78
29 | A16G G27C | 0.17
30 | A16G U20C | 0.37
31 | A16G U20G | 0.16
32 | A16G U20A | 0.16
33 | G17A G27U | 0.31
34 | G17A G27C | 0.19
35 | G17A G27A | 0.42
36 | G17C G22U | 1.51
37 | G17C G22A | 1.3
38 | G17C G22C | 0.82
39 | A16U C46G | 0.08
40 | A16U C46A | 0.09
41 | A16U C46U | 0.1
42 | A16C U28C | 0.03

Row | Variant | self-cleavage
43 | A16C U28A | 0.18
44 | A16C U28G | 0.07
45 | G17A C42A | 0.07
46 | G17A C42U | 0.1
47 | G17A C42G | 0.12
48 | A16C U43A | 0.04
49 | A16C U43C | 0.08
50 | G17A C18G | 0.32
51 | G17A C18A | 0.09
52 | G17A C18U | 0.14
53 | G17A G33C | 0.04
54 | G17A G33A | 0.05
55 | G17A G33U | 0.02
56 | A16U A41U | 0.07
57 | A16U A41C | 0.05
58 | A16U A41G | 0.07
59 | G17C C46U | 0.5
60 | G17C C46A | 0.64
61 | G17C C46G | 0.54
62 | G17A G44U | 0.03
63 | G17A G44C | 0.05

Row | Variant | self-cleavage
64 | G17A G44A | 0.04
65 | G17C C23G | 1.22
66 | G17C C23A | 1.07
67 | G17C C23U | 1.61
68 | G17A G29A | 0.37
69 | G17A G29C | 0.68
70 | G17A G29U | 0.07
71 | G17A U43C | 0.05
72 | G17A U43A | 0.08
73 | G17A U43G | 0.05
74 | A16C U34G | 0.05
75 | A16C U34C | 0.07
76 | A16C U34A | 0.04
77 | A16G A41U | 0.16
78 | A16G A41C | 0.11
79 | A16G A41G | 0.15
80 | G17C G21A | 1.72
81 | G17C G21U | 1.65
82 | G17C G21C | 0.61
83 | A16G | 0.61
84 | A16U | 0.15
